According to paper PMC3567105, “Analysis of the Enzymatic Properties of a Broad Family of Alanine Aminotransferases” (PLoS ONE, 2013):

B1: HvAlaAT (Hordeum vulgare) (protein)
chain: MAATVAVDNLNPKVLKCEYAVRGEIVIHAQRLQEQLKTQPGSLPFDEILYCNIGNPQSLGQQPVTFFREVLALCDHPDLLQREEIKTLFSADSISRAKQILAMIPGRATGAYSHSQGIKGLRDAIASGIASRDGFPANADDIFLTDGASPGVHLMMQLLIRNEKDGILVPIPQYPLYSASIALHGGALVPYYLNESTGWGLETSDVKKQLEDARSRGINVRALVVINPGNPTGQVLAEENQYDIVKFCKNEGLVLLADEVYQENIYVDNKKFHSFKKIVRSLGYGEEDLPLVSYQSVSKGYYGECGKRGGYFEITGFSAPVREQIYKIASVNLCSNITGQILASLVMNPPKASDESYASYKAEKDGILASLARRAKALEHAFNKLEGITCNEAEGAMYVFPQICLPQKAIEAAKAANKAPDAFYALRLLESTGIVVVPGSGFGQVPGTWHFRCTILPQEDKIPAVISRFTVFHEAFMSEYRD
notes: untagged, from cDNA, pBAD18-Kan, E. coli TR61, desalted whole-protein extract, not purified
B2: AtAlaAT1 (Arabidopsis thaliana) (protein)
chain: SASDSSSSLPVTLDTINPKVIKCEYAVRGEIVNIAQKLQEDLKTNKDAYPFDEIIYCNIGNPQSLGQQPITFFREVLALCSYTALLDESATHGLFSSDSIERAWKILDQIPGRATGAYSHSQGIKGLRDAIADGIEARDGFPADPNDIFMTDGASPGVHMMMQLLITSEKDGILCPIPQYPLYSASIALHGGTLVPYYLDEASGWGLEISELKKQLEDARSKGITVRALAVINPGNPTGQVLSEENQRDVVKFCKQEGLVLLADEVYQENVYVPDKKFHSFKKVARSMGYGEKDLALVSFQSVSKGYYGECGKRGGYMEVTGFTSDVREQIYKMASVNLCSNISGQILASLIMSPPKPGDDSYESYIAEKDGILSSLARRAKTLEEALNKLEGVTCNRAEGAMYLFPCLHLPQKAIAAAEAEKTAPDNFYCKRLLKATGIVVVPGSGFRQVPGTWHFRCTILPQEDKIPAIVDRLTAFHQSFMDEFRD
notes: untagged, pBAD18-Kan, E. coli TR61, desalted whole-protein extract, not purified
B3: PfAlaAT (Pyrococcus furiosus DSM 3638) (protein)
chain: MIRASKRALSVEYAIRDVVLPARELEKKGIKVIRLNIGDPVKFDFQPPEHMKEAYCKAIKEGHNYYGDSEGLPELRKAIVEREKRKNGVDITPDDVRVTAAVTEALQLIFGALLDPGDEILVPGPSYPPYTGLVKFYGGKPVEYRTIEEEDWQPDIDDIRKKITDRTKAIAVINPNNPTGALYDKKTLEEILNIAGEYEIPVISDEIYDLMTYEGEHISPGSLTKDVPVIVMNGLSKVYFATGWRLGYMYFVDPENKLSEVREAIDRLARIRLCPNTPAQFAAIAGLTGPMDYLKEYMKKLKERRDYIYKRLNEIPGISTTKPQGAFYIFPKIEVGPWKNDKEFVLDVLHNAHVLFVHGSGFGEYGAGHFRAVFLPPIEILEEAMDRFEKFMKERLKE
notes: as for B2
B4: AtGGAT2 (Arabidopsis thaliana) (protein)
chain: MSLKALDYESLNENVKNCQYAVRGELYLRASELQKEGKKIIFTNVGNPHALGQKPLTFPRQVVSLCQAPFLLDDPNVGMIFPADAIARAKHYLSLTSGGLGAYSDSRGLPGVRKEVAEFIERRDGYPSDPELIFLTDGASKGVMQILNCVIRGQKDGILVPVPQYPLYSATISLLGGTLVPYYLEESENWGLDVNNLRQSVAQARSQGITVRAMVIINPGNPTGQCLSEANIREILRFCCDERLVLLGDEVYQQNIYQDERPFISSKKVLMDMGAPISKEVQLISFHTVSKGYWGECGQRGGYFEMTNIPPRTVEEIYKVASIALSPNVSAQIFMGLMVSPPKPGDISYDQFVRESKGILESLRRRARMMTDGFNSCKNVVCNFTEGAMYSFPQIKLPSKAIQAAKQAGKVPDVFYCLKLLEATGISTVPGSGFGQKEGVFHLRTTILPAEEEMPEIMDSFKKFNDEFMSQYADNFGYSRM
notes: as for B2
B5: AtGGAT1 (Arabidopsis thaliana) (protein)
chain: MALKALDYDTLNENVKKCQYAVRGELYLRASELQKEGKKIIFTNVGNPHALGQKPLTFPRQVVALCQAPFLLDDPNVGMLFPADAIARAKHYLSLTSGGLGAYSDSRGLPGVRKEVAEFIQRRDGYPSDPELIFLTDGASKGVMQILNCVIRGNGDGILVPVPQYPLYSATISLLGGTLVPYYLDESENWGLDVANLRQSVAQARSQGITVRAMVIINPGNPTGQCLSEANIREILKFCYNEKLVLLGDEVYQQNIYQDERPFISSKKVLMEMGSPFSKEVQLVSFHTVSKGYWGECGQRGGYFEMTNLPPRVVEEIYKVASIALSPNVSAQIFMGLMVNPPKPGDISYDQFARESKGILESLRRRARLMTDGFNSCKNVVCNFTEGAMYSFPQIRLPTGALQAAKQAGKVPDVFYCLKLLEATGISTVPGSGFGQKEGVFHLRTTILPAEDEMPEIMDSFKKFNDEFMTQYDNNFGYSKM
notes: as for B2
B6: AtAlaAT2 (Arabidopsis thaliana) (protein)
chain: SSTSEMSASDSTSSLPVTLDSINPKVLKCEYAVRGEIVNIAQKLQEDLKTNKDAYPFDEIIYCNIGNPQSLGQLPIKFFREVLALCDHASLLDESETHGLFSTDSIDRAWRILDHIPGRATGAYSHSQGIKGLRDVIAAGIEARDGFPADPNDIFLTDGASPAVHMMMQLLLSSEKDGILSPIPQYPLYSASIALHGGSLVPYYLDEATGWGLEISDLKKQLEEARSKGISVRALVVINPGNPTGQVLAEENQRDIVNFCKQEGLVLLADEVYQENVYVPDKKFHSFKKVARSLGYGEKDISLVSFQSVSKGYYGECGKRGGYMEVTGFTSDVREQIYKMASVNLCSNISGQILASLVMSPPKPGDDSYDSYMAERDGILSSMAKRAKTLEDALNSLEGVTCNRAEGAMYLFPRINLPQKAIEAAEAEKTAPDAFYCKRLLNATGVVVVPGSGFGQVPGTWHFRCTILPQEDKIPAIVNRLTEFHKSFMDEFRN
notes: as for B2
B7: ScAlaAT1 (Saccharomyces cerevisiae S288C) (protein)
chain: SSSWIVAQNHRRSLSGQSSLNDLRHLNRFPHHTLKTSNNEFYPAEQLTLEDVNENVLKAKYAVRGAIPMRAEELKAQLEKDPQSLPFDRIINANIGNPQQLQQKPLTYYRQVLSLLQYPELLNQNEQQLVDSKLFKLDAIKRAKSLMEDIGGSVGAYSSSQGVEGIRKSVAEFITKRDEGEISYPEDIFLTAGASAAVNYLLSIFCRGPETGVLIPIPQYPLYTATLALNNSQALPYYLDENSGWSTNPEEIETVVKEAIQNEIKPTVLVVINPGNPTGAVLSPESIAQIFEVAAKYGTVVIADEVYQENIFPGTKFHSMKKILRHLQREHPGKFDNVQLASLHSTSKGVSGECGQRGGYMELTGFSHEMRQVILKLASISLCPVVTGQALVDLMVRPPVEGEESFESDQAERNSIHEKLITRAMTLYETFNSLEGIECQKPQGAMYLFPKIDLPFKAVQEARHLELTPDEFYCKKLLESTGICTVPGSGFGQEPGTYHLRTTFLAPGLEWIKKWESFHKEFFDQYRD
notes: as for B2
B8: MmAlaAT1 (Mus musculus) (protein)
chain: ASQRNDRIQASRNGLKGKVLTLDTMNPCVRRVEYAVRGPIVQRALELEQELRQGVKKPFTEVIRANIGDAQAMGQRPITFFRQVLALCVYPNLLSSPDFPEDAKRRAERILQACGGHSLGAYSISSGIQPIREDVAQYIERRDGGIPADPNNIFLSTGASDAIVTMLKLLVAGEGRARTGVLIPIPQYPLYSAALAELDAVQVDYYLDEERAWALDIAELRRALCQARDRCCPRVLCVINPGNPTGQVQTRECIEAVIRFAFEEGLFLMADEVYQDNVYAEGSQFHSFKKVLTEMGPPYATQQELASFHSVSKGYMGECGFRGGYVEVVNMDAEVQKQMAKLMSVRLCPPVPGQALMGMVVSPPTPSEPSFKQFQAERQEVLAELAAKAKLTEQVFNEAPGIRCNPVQGAMYSFPQIQLPLKAVQRAQDLGLAPDMFFCLCLLEETGICVVPGSGFGQQEGTYHFRMTILPPMEKLRVLLEKLRHFHAKFTHEYS
notes: as for B2

Assays:
Test in all cases: cells, lysate or membranes
[1] = substrate: CC(=O)C(=O)O; type: biochemical, Hordeum vulgare; settings: 50 mM glutamate, 100 mM NH4Cl, 0.1 M Tris-HCl pH 8.0, 20°C, 10 µM PLP, unpurified extract
[2] = substrate: O=C(O)CCC(=O)C(=O)O; type: biochemical, Hordeum vulgare; settings: 100 mM alanine, 0.1 M Tris-HCl pH 8.0, 20°C, 10 µM PLP, unpurified extract
[3] = substrate: C[C@H](N)C(=O)O; settings: 10 mM 2-oxoglutarate, 0.1 M Tris-HCl pH 8.0, 20°C, 10 µM PLP, unpurified extract
[4] = substrate: CC(=O)C(=O)O; type: biochemical, Arabidopsis thaliana; settings: 50 mM glutamate, 100 mM NH4Cl, 0.1 M Tris-HCl pH 8.0, 20°C, 10 µM PLP, unpurified extract
[5] = substrate: O=C(O)CCC(=O)C(=O)O; type: biochemical, Arabidopsis thaliana; settings: 100 mM alanine, 0.1 M Tris-HCl pH 8.0, 20°C, 10 µM PLP, unpurified extract
[6] = substrate: N[C@@H](CCC(=O)O)C(=O)O; type: biochemical, Pyrococcus furiosus; settings: 10 mM pyruvate, 100 mM NH4Cl, 0.1 M Tris-HCl pH 8.0, 20°C, 10 µM PLP, unpurified extract
[7] = substrate: O=C(O)CCC(=O)C(=O)O; type: biochemical, Pyrococcus furiosus; settings: 100 mM alanine, 0.1 M Tris-HCl pH 8.0, 20°C, 10 µM PLP, unpurified extract
[8] = substrate: N[C@@H](CCC(=O)O)C(=O)O; type: biochemical, Arabidopsis thaliana; settings: 10 mM pyruvate, 100 mM NH4Cl, 0.1 M Tris-HCl pH 8.0, 20°C, 10 µM PLP, unpurified extract
[9] = substrate: O=C(O)CCC(=O)C(=O)O; type: biochemical, Saccharomyces cerevisiae; settings: 100 mM alanine, 0.1 M Tris-HCl pH 8.0, 20°C, 10 µM PLP, unpurified extract
[10] = substrate: N[C@@H](CCC(=O)O)C(=O)O; type: biochemical, Mus musculus; settings: 10 mM pyruvate, 100 mM NH4Cl, 0.1 M Tris-HCl pH 8.0, 20°C, 10 µM PLP, unpurified extract
[11] = substrate: O=C(O)CCC(=O)C(=O)O; type: biochemical, Mus musculus; settings: 100 mM alanine, 0.1 M Tris-HCl pH 8.0, 20°C, 10 µM PLP, unpurified extract

Protein	Km [3] [µM]	Km [4] [µM]	Km [5] [µM]	also measured
B1	–	–	–	Km [1]: 100 ± 0 µM; Km [2]: 200 ± 0 µM
B2	2400 ± 500	100 ± 0	100 ± 0	–
B3	–	–	–	Km [6]: 900 ± 100 µM; Km [7]: 20 ± 0 µM
B4	1200 ± 100	18500 ± 2700	8800 ± 1800	–
B5	1900 ± 500	600 ± 100	200 ± 100	–
B6	–	5100 ± 900	1000 ± 100	Km [8]: 4900 ± 1100 µM
B7	300 ± 100	–	–	Km [9]: 500 ± 100 µM
B8	–	–	–	Km [10]: 13000 ± 2400 µM; Km [11]: 100 ± 100 µM
